{"source": "paper PMC3232311", "about": "(Biochemistry, 2011)", "proteins": {"B1": {"name": "Mycobacterium smegmatis mycothiol S-transferase (MSMEG_0887), native enzyme (enzyme, UniProt A0QQV2 1-185, looked up)", "chain": "MTAREPTTKTSTGSVNESAAVRELLRDAFTRLIEHVDDLTDGLTEEVSSYRPTPEANSIAWLLWHSARCQDMQLCDIAGVEQVWTRDGWIDRFDLGLPPDDIGYGHSPEEVAKVQAPAELLAGYYHAVHKVTLEYIATVTPGEMDRVVDTNWNPPVTASARLISIIDDCAQHLGQAAYLRGIIPR"}}, "target": "the molecule itself", "assay": "SEC", "data": [{"protein": "B1", "values": [{"measurement": "stoichiometry N", "result": 2}]}]}
